The target in test [1] is Human Bax alpha (human) (UniProt Q07812). Nature of the test: cross-linking.
For test [2] the target is unchanged. The test is described as follows: cross-linking. The source holds these as a separate data set.

Usually stoichiometry N stands for a count of units in the complex or per binding partner.

Read-outs that look alike come from different tables or passages of the source. Some results are limits rather than exact numbers.

Take “Human Bax alpha (from UniProt Q07812 1-192) (natural protein)”: the results for the stoichiometry N in the test with Human Bax alpha (human) [1] and with Human Bax alpha (human) [2] were 2 and under 8, respectively.

Values taken from paper PMC2778690.
